Assay results taken from paper PMC12120360, “Lysine acetylation modulates s‐OPA1 GTPase activity and oligomerization in mitochondrial membrane remodeling” (Protein Science : A Publication of the Protein Society, 2025).

Target: the molecule itself
Assay: mass photometry; protein in solution at 75 nM final; 20 mM HEPES-NaOH pH 7.5, 130 mM NaCl, 10 mM KCl, 2 mM MgCl2, 2 mM DTT, 2% glycerol; Refeyn mass photometer; mass measured three times for each protein

Row | Protein | stoichiometry N
1 | s-OPA1 K328R (domain or fragment, human, UniProt O60313-1 195-960, looked up, endogenous lysine acetylation, sites listed in Figure 2c, Optic Atrophy 1 (OPA1), human, short form (s-OPA1), residues 195-960; domain model of isoform 1; Made as a deacetylation mimetic; source: E. coli BL21 (DE3), purified (glutathione resin, 3C protease cleavage, size exclusion chromatography)) ATDRGSESDKHFRKVSDKEKIDQLQEELLHTQLKYQRILERLEKENKELRKLVLQKDDKGIHHRKLKKSLIDMYSEVLDVLSDYDASYNTQDHLPRVVVVGDQSAGKTSVLEMIAQARIFPRGSGEMMTRSPVRVTLSEGPHHVALFKDSSREFDLTKEEDLAALRHEIELRMRKNVKEGCTVSPETISLNVKGPGLQRMVLVDLPGVINTVTSGMAPDTKETIFSISKAYMQNPNAIILCIQDGSVDAERSIVTDLVSQMDPHGRRTIFVLTKVDLAEKNVASPSRIQQIIEGKLFPMKALGYFAVVTGKGNSSESIEAIREYEEEFFQNSKLLKTSMLKAHQVTTRNLSLAVSDCFWKMVRESVEQQADSFKATRFNLETEWKNNYPRLRELDRNELFEKAKNEILDEVISLSQVTPKHWEEILQQSLWERVSTHVIENIYLPAAQTMNSGTFNTTVDIKLKQWTDKQLPNKAVEVAWETLQEEFSRFMTEPKGKEHDDIFDKLKEAVKEESIKRHKWNDFAEDSLRVIQHNALEDRSISDKQQWDAAIYFMEEALQARLKDTENAIENMVGPDWKKRWLYWKNRTQEQCVHNETKNELEKMLKCNEEHPAYLASDEITTVRKNLESRGVEVDPSLIKDTWHQVYRRHFLKTALNHCNLCRRGFYYYQRHFVDSELECNDVVLFWRIQRMLAITANTLRQQLTNTEVRRLEKNVKEVLEDFAEDGEKKIKLLTGKRVQLAEDLKKVREIQEKLDAFIEALHQEK | 2
2 | s-OPA1 K328Q (domain or fragment, human, UniProt O60313-1 195-960, looked up, acetyl-lysine at K713 only (endogenous, by mass spectrometry), Optic Atrophy 1 (OPA1), human, short form (s-OPA1), residues 195-960; domain model of isoform 1; Gene bought from Genscript in the pGS-21a vector; also called acetylation mimetic mutant K328Q; source: E. coli BL21 (DE3), purified (glutathione resin, 3C protease cleavage, size exclusion chromatography)) ATDRGSESDKHFRKVSDKEKIDQLQEELLHTQLKYQRILERLEKENKELRKLVLQKDDKGIHHRKLKKSLIDMYSEVLDVLSDYDASYNTQDHLPRVVVVGDQSAGKTSVLEMIAQARIFPRGSGEMMTRSPVQVTLSEGPHHVALFKDSSREFDLTKEEDLAALRHEIELRMRKNVKEGCTVSPETISLNVKGPGLQRMVLVDLPGVINTVTSGMAPDTKETIFSISKAYMQNPNAIILCIQDGSVDAERSIVTDLVSQMDPHGRRTIFVLTKVDLAEKNVASPSRIQQIIEGKLFPMKALGYFAVVTGKGNSSESIEAIREYEEEFFQNSKLLKTSMLKAHQVTTRNLSLAVSDCFWKMVRESVEQQADSFKATRFNLETEWKNNYPRLRELDRNELFEKAKNEILDEVISLSQVTPKHWEEILQQSLWERVSTHVIENIYLPAAQTMNSGTFNTTVDIKLKQWTDKQLPNKAVEVAWETLQEEFSRFMTEPKGKEHDDIFDKLKEAVKEESIKRHKWNDFAEDSLRVIQHNALEDRSISDKQQWDAAIYFMEEALQARLKDTENAIENMVGPDWKKRWLYWKNRTQEQCVHNETKNELEKMLKCNEEHPAYLASDEITTVRKNLESRGVEVDPSLIKDTWHQVYRRHFLKTALNHCNLCRRGFYYYQRHFVDSELECNDVVLFWRIQRMLAITANTLRQQLTNTEVRRLEKNVKEVLEDFAEDGEKKIKLLTGKRVQLAEDLKKVREIQEKLDAFIEALHQEK | 2
3 | s-OPA1 K772Q (domain or fragment, human, UniProt O60313-1 195-960, looked up, acetyl-lysine at K713 only (endogenous, by mass spectrometry), Optic Atrophy 1 (OPA1), human, short form (s-OPA1), residues 195-960; domain model of isoform 1; Gene bought from Genscript in the pGS-21a vector; source: E. coli BL21 (DE3), purified (glutathione resin, 3C protease cleavage, size exclusion chromatography)) ATDRGSESDKHFRKVSDKEKIDQLQEELLHTQLKYQRILERLEKENKELRKLVLQKDDKGIHHRKLKKSLIDMYSEVLDVLSDYDASYNTQDHLPRVVVVGDQSAGKTSVLEMIAQARIFPRGSGEMMTRSPVKVTLSEGPHHVALFKDSSREFDLTKEEDLAALRHEIELRMRKNVKEGCTVSPETISLNVKGPGLQRMVLVDLPGVINTVTSGMAPDTKETIFSISKAYMQNPNAIILCIQDGSVDAERSIVTDLVSQMDPHGRRTIFVLTKVDLAEKNVASPSRIQQIIEGKLFPMKALGYFAVVTGKGNSSESIEAIREYEEEFFQNSKLLKTSMLKAHQVTTRNLSLAVSDCFWKMVRESVEQQADSFKATRFNLETEWKNNYPRLRELDRNELFEKAKNEILDEVISLSQVTPKHWEEILQQSLWERVSTHVIENIYLPAAQTMNSGTFNTTVDIKLKQWTDKQLPNKAVEVAWETLQEEFSRFMTEPKGKEHDDIFDKLKEAVKEESIKRHKWNDFAEDSLRVIQHNALEDRSISDKQQWDAAIYFMEEALQARLKDTENAIENMVGPDWQKRWLYWKNRTQEQCVHNETKNELEKMLKCNEEHPAYLASDEITTVRKNLESRGVEVDPSLIKDTWHQVYRRHFLKTALNHCNLCRRGFYYYQRHFVDSELECNDVVLFWRIQRMLAITANTLRQQLTNTEVRRLEKNVKEVLEDFAEDGEKKIKLLTGKRVQLAEDLKKVREIQEKLDAFIEALHQEK | 2
4 | s-OPA1 K772R (domain or fragment, human, UniProt O60313-1 195-960, looked up, 10 endogenous acetylated lysine residues, including K328 and K342 (listed in Figure 2c), Optic Atrophy 1 (OPA1), human, short form (s-OPA1), residues 195-960; domain model of isoform 1; Gene bought from Genscript in the pGS-21a vector; source: E. coli BL21 (DE3), purified (glutathione resin, 3C protease cleavage, size exclusion chromatography)) ATDRGSESDKHFRKVSDKEKIDQLQEELLHTQLKYQRILERLEKENKELRKLVLQKDDKGIHHRKLKKSLIDMYSEVLDVLSDYDASYNTQDHLPRVVVVGDQSAGKTSVLEMIAQARIFPRGSGEMMTRSPVKVTLSEGPHHVALFKDSSREFDLTKEEDLAALRHEIELRMRKNVKEGCTVSPETISLNVKGPGLQRMVLVDLPGVINTVTSGMAPDTKETIFSISKAYMQNPNAIILCIQDGSVDAERSIVTDLVSQMDPHGRRTIFVLTKVDLAEKNVASPSRIQQIIEGKLFPMKALGYFAVVTGKGNSSESIEAIREYEEEFFQNSKLLKTSMLKAHQVTTRNLSLAVSDCFWKMVRESVEQQADSFKATRFNLETEWKNNYPRLRELDRNELFEKAKNEILDEVISLSQVTPKHWEEILQQSLWERVSTHVIENIYLPAAQTMNSGTFNTTVDIKLKQWTDKQLPNKAVEVAWETLQEEFSRFMTEPKGKEHDDIFDKLKEAVKEESIKRHKWNDFAEDSLRVIQHNALEDRSISDKQQWDAAIYFMEEALQARLKDTENAIENMVGPDWRKRWLYWKNRTQEQCVHNETKNELEKMLKCNEEHPAYLASDEITTVRKNLESRGVEVDPSLIKDTWHQVYRRHFLKTALNHCNLCRRGFYYYQRHFVDSELECNDVVLFWRIQRMLAITANTLRQQLTNTEVRRLEKNVKEVLEDFAEDGEKKIKLLTGKRVQLAEDLKKVREIQEKLDAFIEALHQEK | 2
